B1: (A14E, A21G, A22(GQEP)12, A70K^, A71P, B25H, B29R, desB30 human insulin)/(226A, 227G, 228P, 234A, 235K, 297E, 315Q, 384Q, des447 … (other)
chain 1: GIVEQCCTSICSLEQLENYCGGQEPGQEPGQEPGQEPGQEPGQEPGQEPGQEPGQEPGQEPGQEPGQEPKP
chain 2: FVNQHLCGSHLVEALYLVCGERGFHYTPR
chain 3: AGPCPAPEAKGGPSVFLFPPKPKDTLMISRTPEVTCVVVDVSQEDPEVQFNWYVDGVEVHNAKTKPREEQFESTYRVVSVLTVLHQDWLQGKEYKCKVSNKGLPSSIEKTISKAKGQPREPQVYTLPPSQEEMTKNQVSLTCLVKGFYPSDIAVEWESQGQPENNYKTTPPVLDSDGSFFLYSRLTVDKSRWQEGNVFSCSVMHEALHNHYTQKSLSLSLG
modifications: epsilon amino group of Lys A70 (A70K) carries the trivalent linker 3,5-bis[(2-acetyl)amino]benzoyl, which bridges to Cys229 of both Fc polypeptides; ; thiol of Cys229 (EU numbering) linked to -C(O)-CH2- of the linker; aglycosylated (made in E. coli)
B2: (A14E, A21G, A22(GQEP)11, A66G, A67Q, A68E, A69K^, A70P, B16E, B25H, B29R, desB30 human insulin)/(226A, 227G, 228P, 234A, 235K, 297E, 315Q, 384Q, des447 … (other)
chain 1: GIVEQCCTSICSLEQLENYCGGQEPGQEPGQEPGQEPGQEPGQEPGQEPGQEPGQEPGQEPGQEPGQEKP
chain 2: FVNQHLCGSHLVEALELVCGERGFHYTPR
chain 3: B1 chain 3
modifications: epsilon amino group of Lys A69 (A69K) carries the trivalent linker 3,5-bis[(2-acetyl)amino]benzoyl, which bridges to Cys229 of both Fc polypeptides; ; thiol of Cys229 (EU numbering) linked to -C(O)-CH2- of the linker; aglycosylated (made in E. coli)
B3: (A14E, A21G, A22(GQEP)11, A66G, A67Q, A68E, A69K^, A70P, B16H, B25H, B29R, desB30 human insulin)/(226A, 227G, 228P, 234A, 235K, 297E, 315Q, 384Q, des447 … (other)
chain 1: B2 chain 1
chain 2: FVNQHLCGSHLVEALHLVCGERGFHYTPR
chain 3: B1 chain 3
modifications: epsilon amino group of Lys A69 (A69K) carries the trivalent linker 3,5-bis[(2-acetyl)amino]benzoyl, which bridges to Cys229 of both Fc polypeptides; ; thiol of Cys229 (EU numbering) linked to -C(O)-CH2- of the linker; aglycosylated (made in E. coli)

What follows are molecules tested against human insulin-like growth factor-1 receptor (human, UniProt P08069) (assay: SPA competition with [125I-Tyr31]-human IGF-1, membrane-associated human IGF-1R; relative to human insulin standard).
Protocol: (§1) Membrane-associated human IR and IGF-1R are purified from BHK cells stably transfected with the pZem219B vector containing either the human IR-A, IR-B or IGF-IR insert. BHK cells are harvested and homogenized in ice-cold buffer (25 mM HEPES pH 7.4, 25 mM CaCl₂ and 1 mM MgCl₂, 250 mg/L bacitracin, 0.1 mM Pefablock). The homogenates are layered on a 41% (w/v) sucrose cushion and centrifuged for 75 minutes at 95000 g at 4° C. The plasma membranes are collected, diluted 1:5 with buffer (as above) and centrifuged again for 45 minutes at 40000 g at 4° C. The pellets are resuspended in a minimal volume of buffer and drawn through a needle (size 23) three times before storage at −80° C. until usage. The relative binding affinity for either of the membrane-associated human IR-A, IR-B or IGF-1R is determined by competition binding in a SPA setup. IR assays are performed in duplicate in 96-well OptiPlates (Perkin-Elmer Life Sciences). Membrane protein is incubated with gentle agitation for 150 minutes at 25° C. with 50 pM [¹²⁵IA14Y]-human insulin in a total volume of […] assay buffer (50 mM HEPES, 150 mM NaCl, 5 mM MgSO4, 0.01% Triton X-100, 0.1% (w/v) HSA (Sigma A1887), Complete EDTA-free protease inhibitors), 50 μg of wheat germ agglutinate (WGA)-coated PVT microspheres (GE Healthcare) and increasing concentrations of ligand. Assays are terminated by centrifugation of the plate at 2000 rpm for 2 minutes and bound radioactivity quantified by counting on a TopCount NXT (Perkin-Elmer Life Sciences).
(§2) IGF-1R assays are conducted essentially as for the IR binding assays except that membrane-associated IGF-1R and 50 pM [¹²⁵I-Tyr31]-human IGF-1 were employed.

Molecule | Rel. aff. (%)
B1 | 0.91%
B2 | 0.29%
B3 | 0.1%

The molecules below were run against hFcRn ectodomain (human, UniProt P55899) (assay: SPR (Biacore 4000), conjugate immobilised by amine coupling, hFcRn ectodomain as analyte, pH 6.0, 25 C, steady-state fit).

Molecule | Kd
B1 | 1.5 µM
B2 | 1.5 µM
B3 | 1.6 µM

Each molecule was assayed against T1, human insulin receptor isotype A (human, UniProt P06213-2) (assay: SPA competition with [125I-A14Y]-human insulin, solubilised human IR-A; relative to human insulin (100%)).

Molecule | Insulin receptor affinity [IC50 relative to HI (%)]
B1 | 4.5%
B2 | 0.4%
B3 | 1.6%

The molecules below were run against T1, human insulin receptor isotype A (assay: SPA competition with [125I-A14Y]-human insulin, membrane-associated human IR-A; relative to human insulin standard).
Protocol: as §1, §2

Molecule | Rel. aff. (%)
B1 | 2.97%
B2 | 0.66%
B3 | 1.27%

Each molecule was assayed against human insulin receptor isotype B (human) (UniProt P06213) (assay: SPA competition with [125I-A14Y]-human insulin, membrane-associated human IR-B; relative to human insulin standard).

Molecule | Rel. aff. (%)
(A14E, A21G, A22(GQEP)11, A66G, A67Q, A68E, A69K^, A70P, B16E, B25H, B29R, desB30 human insulin)/(226A, 227G, 228P, 234A, 235K, 297E, 315Q, 384Q, des447 hIgG4-Fc(226-447))3,5-bis[(2-acetyl)amino]benzoyl conjugate | 0.59%
(A14E, A21G, A22(GQEP)11, A66G, A67Q, A68E, A69K^, A70P, B16H, B25H, B29R, desB30 human insulin)/(226A, 227G, 228P, 234A, 235K, 297E, 315Q, 384Q, des447 hIgG4-Fc(226-447))3,5-bis[(2-acetyl)amino]benzoyl conjugate | 1.26%
(A14E, A21G, A22(GQEP)12, A70K^, A71P, B25H, B29R, desB30 human insulin)/(226A, 227G, 228P, 234A, 235K, 297E, 315Q, 384Q, des447 hIgG4-Fc(226-447))3,5-bis[(2-acetyl)amino]benzoyl conjugate | 3.05%

Source: patent US20210393745A1, “OLIGOMER EXTENDED INSULIN-FC CONJUGATES AND THEIR MEDICAL USE” (Novo Nordisk A/S, priority 2018, published 2021)
